Experimental data: patent US20180195054A1 (Stanford University, published 2018)
Residue numbers refer to the chain shown, from its start. Numbers in names are those of the source.

Key:
[1] = target: human CD47 on the surface of cancer cells (Raji, Jurkat, DLD-1) (human) (UniProt Q08722); assay: flow cytometry on Raji cells, competition with 100 nM Alexa Fluor 647 WT SIRPα tetramer
[2] = target: biotinylated CD47 IgSF domain (human CD47 residues 19-135 / residues 1-117, C15G) (human) (UniProt Q08722); assay: SPR (Biacore T100, 25 C), biotinylated CD47 captured on SA chip, SIRPα variant in solution, 1:1 Langmuir model
[3] = target: human CD47 on the surface of cancer cells (Raji, Jurkat, DLD-1) (human) (UniProt Q08722); assay: flow cytometry on Jurkat cells, competition with Alexa Fluor 647 wild-type SIRPα tetramer (50 nM per paragraph 133)
[4] = target: T1, biotinylated CD47 IgSF domain (human CD47 residues 19-135 / residues 1-117, C15G) (human, UniProt Q08722 19-135, biotinylated with BirA ligase at the C-terminal biotin acceptor peptide tag); assay: SPR (Biacore T100, 25 C), biotinylated CD47 captured on SA chip, SIRPα variant in solution, 1:1 Langmuir model
T1 construct: range 19-135; Captured on a Biacore SA chip for SPR; C15G is counted on the mature domain (1-117), not on the precursor; also called immobilized CD47
Method: SPR experiments were conducted on a Biacore T100 instrument at 25° C. Experiments used a Biacore SA sensor chip (GE Healthcare) to capture biotinylated CD47 at a surface density of approximately 150 RU. An unrelated biotinylated protein was immobilized as a reference surface for the SA sensor chip with matching RU to the experimental surface. Serial dilutions of unbiotinylated SIRPα variants in the running buffer [1×HBS-P (GE Healthcare)] were flowed over the chip at a rate of 50 μL/min. CD47 was regenerated using three 30 second injections of 2M MgCl₂. Data was analyzed using the Biacore T100 evaluation software version 2.0 with a 1:1 Langmuir binding model.
Experiments were conducted with a Biacore T100 at 25° C. Protein concentrations were quantified by 280 nm absorbance with a Nanodrop2000 spectrometer (Thermo Scientific). A Biacore SA sensor chip (GE Healthcare) was used to capture biotinylated CD47 (Rₘₐₓ ˜150 RU). An unrelated biotinylated protein was immobilized with an RU value matching that of the […] to control for nonspecific binding. Measurements were made with serial dilutions of the SIRPα variants in HBS-P+ buffer (GE Healthcare). The CD47 surface was regenerated by three 60 second injections of 2 M MgCl₂. All data were analyzed with the Biacore T100 evaluation software version 2.0 with a 1:1 Langmuir binding model.

[5] = target: T2, human CD47 on the surface of cancer cells (Raji, Jurkat, DLD-1) (human, UniProt Q08722 19-323); assay: flow cytometry on Jurkat cells, competition with Alexa Fluor 647 wild-type SIRPα tetramer (50 nM per paragraph 133)
T2 construct: whole, on cells; also called cell-surface CD47; CD47 on cancer cells
Method: (§1) GFP+ Jurkat cells were washed in PBS then incubated with titrating concentrations of biotinylated SIRPα variants for 30 minutes on ice. Wild-type SIRPα tetramer was pre-formed by incubating a 4:1 molar ratio of biotinylated wild-type SIRPα with streptavidin for 15 minutes on ice. […] Cells were washed twice then analyzed for SIRPα variant binding by flow cytometry using an Accuri C6 flow cytometer. To assess blocking of wild-type SIRPα to cD47, 50 nM wild-type SIRPα tetramer was incubated with titrating concentrations of CD47 blocking agents for 30 minutes on ice. Anti-CD47 clone B6H12 (eBioscience) was used as a positive control for blocking. Data were analyzed using GraphPad Prism 5. Maximal SIRPα variant binding represents the percentage of the maximal mean fluorescence intensity measured for each variant.

[6] = target: T2, human CD47 on the surface of cancer …; assay: flow cytometry on Raji cells, competition with 100 nM Alexa Fluor 647 WT SIRPα tetramer
[7] = target: T3, mouse CD47 on mouse cells (CT26 colon cancer cells; mouse blood cells) (mouse, UniProt Q61735 19-303); assay: flow cytometry on mouse CT26 colon cancer cells
T3 construct: whole, on cells
T3 sequence (looked up): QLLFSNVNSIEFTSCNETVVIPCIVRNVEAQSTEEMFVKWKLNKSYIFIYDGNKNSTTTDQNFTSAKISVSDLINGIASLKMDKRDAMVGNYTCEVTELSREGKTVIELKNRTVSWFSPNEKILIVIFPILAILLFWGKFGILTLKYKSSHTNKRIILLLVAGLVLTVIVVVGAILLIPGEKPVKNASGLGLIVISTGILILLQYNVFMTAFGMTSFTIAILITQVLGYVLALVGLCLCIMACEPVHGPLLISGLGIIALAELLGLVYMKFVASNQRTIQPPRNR

[8] = target: T2, human CD47 on the surface of cancer …; assay: flow cytometry on Jurkat cells, biotinylated SIRPα variant detected with Alexa Fluor 647 streptavidin
Method: as §1

[9] = target: T2, human CD47 on the surface of cancer …; assay: flow cytometry on DLD-1 cells, detection with goat anti-human IgG
Method: Varying concentrations of biotinylated SIRPα monomers, SIRPα-hlgG4 fusion proteins, or anti-CD47 antibodies were incubated with cancer cells as indicated. […] Binding of SIRPα-hlgG4 fusion proteins or anti-CD47 antibodies was detected with goat anti-human IgG antibody (Invitrogen) and was analyzed on an LSRFortessa with high-throughput sampler (BD Biosciences). Data represent the mean fluorescence intensity normalized to maximal binding for each class of reagents, and points were fit to sigmoidal dose-response curves using Prism 5 (Graphpad).

[10] = target: T4, mouse CD47 displayed on the surface of yeast (mouse, UniProt Q61735 19-133, limits assumed); assay: flow cytometry on yeast displaying mouse CD47
T4 sequence (looked up): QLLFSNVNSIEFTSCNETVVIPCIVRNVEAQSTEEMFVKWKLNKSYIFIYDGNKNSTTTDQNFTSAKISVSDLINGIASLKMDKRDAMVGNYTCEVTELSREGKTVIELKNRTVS

“Fab fragments of anti-CD47 antibody clone B6H12” showed an IC50 (read off the curve) [1] of 100 nM.

“WT allele 2 (from UniProt P78324) (receptor)” showed a Kd [2] of 452 nM.

Molecule Anti-CD47 (B6H12) (antibody) has an IC50 (read off the curve) [3] of 80 nM.

B1: first generation SIRPα mutant 1A5 monomer (designed binder)
chain: EEEVQVIQPDKSVSVAAGESAILHCTLTSLIPVGPIQWFRGAGPARVLIYNQRQGHFPRVTTVSEGTRRENMDFSISISNITPADAGTYYCIKFRKGSPDTEFKSGAGTELSVRAKPSHHHHHHHH
With B1 the Kd [4] was 3.6 nM and the “IC50 (read off the curve)” value [5] was about 80 nM.

B2: high-affinity SIRPα variant FD6 monomer (d1 domain) (designed binder)
chain: B1 chain with V6I, L27I, I31F, H56P, V63I, G66T
notes: Second generation variant of human SIRPα allele 1 d1
B2 was tested, and the Kd [4] was 0.0413 nM, the “IC50 (read off the curve)” value [6] was about 2 nM and the “IC50 (read off the curve)” value [5] was about 3 nM.

B3: FA4 (designed binder)
SIRPα d1 domain variant: EEELQIIQPDKSVSVAAGESAILHCTITSLTPVGPIQWFRGAGPARVLIYNQRQGPFPRVTTVSEGTRRENMDFSISISNITPADAGTYYCIKFRKGSPDTEVKSGAGTELSVRAKPS
notes: also called FA4 mutant d1 domain; FA4 monomer (unbiotinylated, SPR analyte)
B3 showed a Kd [4] of 0.034 nM.

B4: 2D3 (designed binder)
SIRPα d1 domain variant: B3 SIRPα d1 domain variant with L4V, A21V, V47L, Q54E, G66T, I92V, F94L, V103F
notes: also called 2D3 mutant d1 domain
Molecule B4 has a Kd [4] of 0.847 nM.

B5: 1D4 (designed binder)
SIRPα d1 domain variant: B3 SIRPα d1 domain variant with I6V, T31I, V47E, Q54E, P56H, G66T, I92V
notes: First generation variant, unbiotinylated monomer in SPR; also called 1D4 mutant d1 domain
Molecule B5 has a Kd [4] of 11.6 nM.

B6: 2B5 (designed binder)
SIRPα d1 domain variant: B3 SIRPα d1 domain variant with L4I, I6V, A21V, L23I, I27V, T31F, P56R, R68K, I92V, F94V
notes: also called 2B5 mutant d1 domain
B6 gave a Kd [4] of 0.423 nM.

B7: FB3 (designed binder)
SIRPα d1 domain variant: B3 SIRPα d1 domain variant with T31F, V47L, G66T, R68K, I92V, V103F
notes: also called FB3 mutant d1 domain
In the case of B7, the Kd [4] is reported as 0.0699 nM.

B8: 2F5 (designed binder)
SIRPα d1 domain variant: B3 SIRPα d1 domain variant with L4V, I6L, I27V, T31F, Q54E, R68K
notes: also called 2F5 mutant d1 domain
With B8 the Kd [4] was 0.276 nM.

B9: 2A10 (designed binder)
SIRPα d1 domain variant: B3 SIRPα d1 domain variant with T31S, R68K, F94L, V103F
notes: also called 2A10 mutant d1 domain
In the case of B9, the Kd [4] is reported as 0.5 nM.

B10: 2A2 (designed binder)
SIRPα d1 domain variant: B3 SIRPα d1 domain variant with L4V, A21I, I27V, T31F, Q54E, P56R, F94L, V103F
notes: also called 2A2 mutant d1 domain
With B10 the Kd [4] was 0.402 nM.

B11: biotinylated FD6 monomer (designed binder)
chain: EEEVQIIQPDKSVSVAAGESAILHCTITSLFPVGPIQWFRGAGPARVLIYNQRQGPFPRVTTISETTRRENMDFSISISNITPADAGTYYCIKFRKGSPDTEFKSGAGTELSVRAKPSGLNDIFEAQKIEWHEHHHHHHHH
modifications: biotinylated at the C-terminal biotin acceptor peptide tag
With B11 the “EC50 (read off the curve)” value [7] was about 300 nM.

B12: biotinylated high-affinity SIRPα variant FA4 monomer (designed binder)
chain: B11 chain with V4L, F31T, I63V, T66G, F103V
modifications: biotinylated at the C-terminal biotin acceptor peptide tag
B12: binds [8].

B13: FD6-hIgG4 (FD6 d1 domain fused to hinge, CH2 and CH3 of human IgG4) (Fc fusion)
chain: EEEVQIIQPDKSVSVAAGESAILHCTITSLFPVGPIQWFRGAGPARVLIYNQRQGPFPRVTTISETTRRENMDFSISISNITPADAGTYYCIKFRKGSPDTEFKSGAGTELSVRAKPSAAAPPCPPCPAPEFLGGPSVFLFPPKPKDTLMISRTPEVTCVVVDVSQEDPEVQFNWYVDGVEVHNAKTKPREEQFNSTYRVVSVLTVLHQDWLNGKEYKCKVSNKGLPSSIEKTISKAKGQPREPQVYTLPPSQEEMTKNQVSLTCLVKGFYPSDIAVEWESNGQPENNYKTTPPVLDSDGSFFLYSRLTVDKSRWQEGNVFSCSVMHEALHNHYTQKSLSLSPGK
notes: also called FD6-hlgG4; FD-hlgG4
For B13, the “EC50 (read off the curve)” value [9] was about 5 nM and the “IC50 (read off the curve)” value [5] was about 2 nM.

B14: high-affinity SIRPα variant CV1 monomer (consensus variant 1, d1 domain) (designed binder)
chain: EEELQIIQPDKSVLVAAGETATLRCTITSLFPVGPIQWFRGAGPGRVLIYNQRQGPFPRVTTVSDTTKRNNMDFSIRIGNITPADAGTYYCIKFRKGSPDDVEFKSGAGTELSVRAKPSHHHHHHHH
notes: Nine consensus substitutions grafted onto wild-type SIRPα allele 2
In the case of B14, the Kd [4] is reported as 0.0111 nM, the “EC50 (read off the curve)” value [10] is reported as about 20 nM and the “IC50 (read off the curve)” value [6] is reported as about 0.8 nM.

B15: CV1-hIgG4 (CV1 d1 domain fused to hinge, CH2 and CH3 of human IgG4 S228P) (Fc fusion)
chain: EEELQIIQPDKSVLVAAGETATLRCTITSLFPVGPIQWFRGAGPGRVLIYNQRQGPFPRVTTVSDTTKRNNMDFSIRIGNITPADAGTYYCIKFRKGSPDDVEFKSGAGTELSVRAKPSAAAPPCPPCPAPEFLGGPSVFLFPPKPKDTLMISRTPEVTCVVVDVSQEDPEVQFNWYVDGVEVHNAKTKPREEQFNSTYRVVSVLTVLHQDWLNGKEYKCKVSNKGLPSSIEKTISKAKGQPREPQVYTLPPSQEEMTKNQVSLTCLVKGFYPSDIAVEWESNGQPENNYKTTPPVLDSDGSFFLYSRLTVDKSRWQEGNVFSCSVMHEALHNHYTQKSLSLSPGK
notes: also called CV1-hlgG4
With B15 the “EC50 (read off the curve)” value [9] was about 4 nM.
